According to patent publication US20200291133A1 (VACARA, published 2020):

T1: CEP1 (X at 6 and 12 = citrulline; biotin-conjugated for SPR and Luminex)
T1 construct: CKIHAXEIFDSXGNPTVECK; derived from alpha-enolase; also called CEPI; citrullinated alpha-enolase peptide
T1 peptide: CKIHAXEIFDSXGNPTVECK


Key:
CEP1 [1] = molecular target: T1, CEP1; assay: SPR (Biacore 2000), biotinylated CEP1 on a streptavidin chip, Fab as analyte up to about 3400 nM; plot of RU against concentration; REP1 channel as reference per the legend
Procedure: (§1) SPR sensorgrams of chimeric E4NG Fab fragment (A), E4 (B), F3(C), D10 (D), and B2 (E) binding to immobilized CEP1. Response Units (R.U.) reflect the value of subtracting […]. A series of analyte concentrations were tested. The binding of E4NG (F) and F3 (G) to citrullinated Histone2A peptide were analyzed in a similar way as shown in (A)-(E).
(§2) Surface plasmon resonance analysis. Binding of peptides to the given antibody was analyzed by SPR using a Biacore 2000 biosensor at 25° C. Briefly, the biotin-conjugated peptide was coupled to an […] by streptavidin binding. Then the Fab fragment or full-length antibody was diluted in PBS-P running buffer (20 mM phosphate buffer, 2.7 mM KCl, 137 mM NaCl and 0.05% Surfactant P20) and injected at in a series of concentrations. Data processing and analysis were performed using Biacore 2000 evaluation software.

CEP1 [2] = molecular target: T1, CEP1; assay: SPR, CEP1 immobilised
Procedure: as §2

CEP1 [3] = molecular target: T1, CEP1; assay: SPR (Biacore 2000), biotinylated CEP1 on a streptavidin chip, full antibody as analyte up to 200 nM; plot of RU against concentration; REP1 channel as reference per the legend; the legend says only E4, paragraph 117 ties the CEP1 Kd to E4NG
Procedure: as §1, §2

Row | Binder | Kd (CEP1 [1]) [nM] | Kd (CEP1 [2]) [nM] | Kd (CEP1 [3]) [nM]
1 | chimeric E4NG Fab fragment (murine IgG2b constant region) (Fab, domain: constant region; Fab made with the ImmunoPure Fab Preparation Kit (papain); also called E4Fab; mE4Fab; not shown: part of the mouse IgG2b constant region (UniProtKB P01867) left in the Fab after cleavage) heavy: QVQLEESGPGLVRPSETLSLSCTVSGFPMSESYFWGWIRQSPGKGLEWLGSVIHTGTTYYRPSLESRLTIAMDPSKNQVSLSLTSVTVADSAMYYCVRIRGGSSNWLDPWGPGIVVTASS light: QSVWTQPPSVSAAPGQKVTISCSGDDSILRSAFVSWYQQVPGSAPKLVIFDDRQRPSGIPARFSGSNSGTTATLDIAGLQRGDEADYYCAAWNGRLSAFVFGSGTKLTVLGQPKSSPSVTLFPPSSEELETNKATLVCTITDFYPGVVTVDWKVDGTPVTQGMETTQPSKQSNNKYMASSYLTLTARAWERHSSYSCQVTHEGHTVEKSLSRADCS | 2300 | – | –
2 | chimeric E4NG (antibody, mouse IgG2b, domain: constant region; Human E4 variable regions on mouse IgG2b/lambda-1 constant regions; also called chimeric non-glycosylated (NG) E4; mE4; not shown: mouse IgG2b heavy chain constant region, UniProtKB P01867) heavy: QVQLEESGPGLVRPSETLSLSCTVSGFPMSESYFWGWIRQSPGKGLEWLGSVIHTGTTYYRPSLESRLTIAMDPSKNQVSLSLTSVTVADSAMYYCVRIRGGSSNWLDPWGPGIVVTASS light: QSVWTQPPSVSAAPGQKVTISCSGDDSILRSAFVSWYQQVPGSAPKLVIFDDRQRPSGIPARFSGSNSGTTATLDIAGLQRGDEADYYCAAWNGRLSAFVFGSGTKLTVLGQPKSSPSVTLFPPSSEELETNKATLVCTITDFYPGVVTVDWKVDGTPVTQGMETTQPSKQSNNKYMASSYLTLTARAWERHSSYSCQVTHEGHTVEKSLSRADCS | – | 0.25 | 250
